According to patent US20200199233A1:
Where “and” joins values, the source holds several entries; their conditions need not be identical. Equal entries are not always repeated. Values belong to the substance of their own block, whether it stands above or below them.

What was measured:
mCD28.mmh (mouse) = test: SPR (Biacore), 37 C, antibody captured by anti-human Fc, mCD28.mmh injected
hMUC16.mmh (human) = test: SPR (Biacore), 37 C, antibody captured by anti-human Fc, hMUC16.mmh injected
[1] = target: human MUC16 on cells (OVCAR-3, PEO1, 3T3/hβ2M/HLA-A2/NYESO1p/hMUC16) (human); test: cell-based or functional assay
[2] = target: human MUC16 on cells (OVCAR-3, PEO1, 3T3/hβ2M/HLA-A2/NYESO1p/hMUC16) (human); test: flow cytometry ('FACS binding', MFI_PE) on cells. The sheet names no cell line; the legend of FIGS. 2A-2I names PEO1 (endogenous MUC16). The unit is taken from the axis, Log10 (M).
[3] = target: human MUC16 on cells (OVCAR-3, PEO1, 3T3/hβ2M/HLA-A2/NYESO1p/hMUC16) (human); test: flow cytometry ('FACS binding', MFI_PE) on cells, the same assay as the other two curves. The control's curve is flat at baseline, so this is a fit value without a response. The unit is taken from the axis, Log10 (M).

mCD28.mmh (mouse), sequence (chain, as listed by the source limits assumed): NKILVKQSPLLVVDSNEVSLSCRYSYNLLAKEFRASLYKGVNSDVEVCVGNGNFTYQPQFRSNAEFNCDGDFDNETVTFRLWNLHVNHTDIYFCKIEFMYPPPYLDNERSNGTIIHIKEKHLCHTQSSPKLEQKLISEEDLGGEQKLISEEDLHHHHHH
hMUC16.mmh (human), sequence (chain, as listed by the source limits assumed): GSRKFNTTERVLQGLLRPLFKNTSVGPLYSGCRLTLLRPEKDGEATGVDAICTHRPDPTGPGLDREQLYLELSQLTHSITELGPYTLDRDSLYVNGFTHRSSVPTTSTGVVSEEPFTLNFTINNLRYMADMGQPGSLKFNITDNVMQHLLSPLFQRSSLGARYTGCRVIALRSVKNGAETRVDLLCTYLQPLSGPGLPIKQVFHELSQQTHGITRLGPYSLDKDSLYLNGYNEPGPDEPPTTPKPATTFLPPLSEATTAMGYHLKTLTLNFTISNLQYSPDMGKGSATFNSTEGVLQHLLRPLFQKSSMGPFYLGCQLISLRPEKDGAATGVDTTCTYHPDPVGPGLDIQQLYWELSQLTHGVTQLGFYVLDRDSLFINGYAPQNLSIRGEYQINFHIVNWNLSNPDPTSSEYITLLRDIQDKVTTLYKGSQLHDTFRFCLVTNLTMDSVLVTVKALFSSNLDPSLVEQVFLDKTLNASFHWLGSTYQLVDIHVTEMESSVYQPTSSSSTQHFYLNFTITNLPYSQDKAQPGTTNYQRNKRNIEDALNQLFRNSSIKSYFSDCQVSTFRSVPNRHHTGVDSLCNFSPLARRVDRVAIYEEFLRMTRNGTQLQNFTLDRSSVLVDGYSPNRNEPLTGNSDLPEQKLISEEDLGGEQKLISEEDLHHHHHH

Kd (mCD28.mmh (mouse)): 3760 pM | T½ (mCD28.mmh (mouse)): 2.48 h | koff (mCD28.mmh (mouse)): 7.77e-05 s⁻¹ | kon (mCD28.mmh (mouse)): 20700 M⁻¹ s⁻¹ | 90 nM hMUC16.mmh Bind (RU) (hMUC16.mmh (human)): 513 RU | Kd (hMUC16.mmh (human)): 749 pM | T½ (hMUC16.mmh (human)): 0.408 h | koff (hMUC16.mmh (human)): 0.000472 s⁻¹ | kon (hMUC16.mmh (human)): 629000 M⁻¹ s⁻¹
Substance: REGN4615 (bispecific antibody)

EC50 [2]: 1840 pM
Substance: REGN4018 (bispecific antibody)
PEO1 Kill EC50 [M], human PBMCs, MUC16xCD3 as single agent [1]: 1.27e-10 M | PEO1 Kill EC50 [M], human PBMCs, MUC16xCD3 titrated in the presence of bs24963D [1]: 1.07e-10 M and 5.31e-11 M | PEO1 min. % viability, human PBMCs, MUC16xCD3 as single agent [1]: 57% | PEO1 min. % viability, human PBMCs, MUC16xCD3 titrated in the presence of bs24963D [1]: 9.8% | PEO1 min. % viability, human PBMCs, MUC16xCD3 titrated in the presence of bs32897D [1]: 17.7%

EC50 [3]: 2270 pM
Substance: CD3-BINDING CONTROL (bispecific antibody)
